In patent US20250361264A1, “PROTEIN MODIFYING REAGENT” (CANON KABUSHIKI KAISHA, priority 2023, published 2025):

Target: T1, fibroin sheet (Bombyx mori, UniProt P05790)
T1 construct: purchased Sigma-Aldrich
Test: Color intensity of modified fibroin sheet after glucose/HRP/4-aminoantipyrine chromogenic reaction
Type: biochemical
Details: fibroin sheet adsorbed from 0.3 mg/mL solution, 10 mM glucose, 1000 U/mL HRP, 5 minutes, ImageJ, average of five sheets
Protocol: After methanol was added to the collected sheet, methanol was removed and dried overnight. The measurement of the weight of the fibroin sheet cut into 20 mm×40 mm size confirmed that it was 1.25 μg/mm^2 fibroin sheet. Fibroin sheets of 5 mm×5 mm size were cut and added to an aqueous solution of 0.3 mg/mL Compound 1 (0.2 mL) and allowed to stand for 10 minutes. Fibroin sheets were immersed in PBS buffer (1 mL, pH7.4) containing 0.05 wt % Tween20 for 15 minutes×2 and in PBS (1 mL, pH7.4) for 1 minute. The modified fibroin sheet was obtained by drying at room temperature.
A fibroin sheet adsorbed with Compound 6 was prepared in the same manner as Manufacturing Example 2 except that 0.3 mg/mL Compound 6 aqueous solution was used instead of the aqueous solution of Compound 1.
1.5 μL of phosphate buffered saline (pH7.4) containing 10 mM glucose, 1000 U/mL HRP, 3.7 mM 4-aminoantipyrine, 6.4 mM sodium 3-[ethyl(m-tolyl) amino]-2 hydroxy-1 propanesulfonate was added dropwise to a fibroin sheet modified with Compound 6 obtained in Manufacturing Example 12 and allowed to stand in a wet box for 5 minutes. […] After drying the sheet, the sheet was read by a scanner to obtain image data. […] Five sheets were prepared and subjected to the same evaluation, and the average value of color intensity (Color Intensity, hereinafter CI value) was calculated. The calculated CI value was 54.5.

Molecule | CI value (average color intensity)
Compound 6: Thioflavin T acid bound to glucose oxidase (GOx); 5.6 molecules per GOx molecule (conjugate, UniProt P13006 17-605, looked up, Thioflavin T acid conjugated, 5.6 per GOx, 5.6 molecules per GOx molecule) Glucose oxidase: LPHYIRSNGIEASLLTDPKDVSGRTVDYIIAGGGLTGLTTAARLTENPNISVLVIESGSYESDRGPIIEDLNAYGDIFGSSVDHAYETVELATNNQTALIRSGNGLGGSTLVNGGTWTRPHKAQVDSWETVFGNEGWNWDNVAAYSLQAERARAPNAKQIAAGHYFNASCHGVNGTVHAGPRDTGDDYSPIVKALMSAVEDRGVPTKKDFGCGDPHGVSMFPNTLHEDQVRSDAAREWLLPNYQRPNLQVLTGQYVGKVLLSQNGTTPRAVGVEFGTHKGNTHNVYAKHEVLLAAGSAVSPTILEYSGIGMKSILEPLGIDTVVDLPVGLNLQDQTTATVRSRITSAGAGQGQAAWFATFNETFGDYSEKAHELLNTKLEQWAEEAVARGGFHNTTALLIQYENYRDWIVNHNVAYSELFLDTAGVASFDVWDLLPFTRGYVHILDKDPYLHHFAYDPQYFLNELDLLGQAAATQLARNISNSGAMQTYFAGETIPGDNLAYDADLSAWTEYIPYHFRPNYHGVGTCSMMPKEMGGVVDNAARVYGVQGLRVIDGSIPPTQMSSHVMTVFYAMALKISDAILEDYASMQ | 54.5
GOx: glucose oxidase (manufactured by Sigma-Aldrich, G2133), unmodified comparison (protein, UniProt P13006 17-605, looked up) Glucose oxidase: LPHYIRSNGIEASLLTDPKDVSGRTVDYIIAGGGLTGLTTAARLTENPNISVLVIESGSYESDRGPIIEDLNAYGDIFGSSVDHAYETVELATNNQTALIRSGNGLGGSTLVNGGTWTRPHKAQVDSWETVFGNEGWNWDNVAAYSLQAERARAPNAKQIAAGHYFNASCHGVNGTVHAGPRDTGDDYSPIVKALMSAVEDRGVPTKKDFGCGDPHGVSMFPNTLHEDQVRSDAAREWLLPNYQRPNLQVLTGQYVGKVLLSQNGTTPRAVGVEFGTHKGNTHNVYAKHEVLLAAGSAVSPTILEYSGIGMKSILEPLGIDTVVDLPVGLNLQDQTTATVRSRITSAGAGQGQAAWFATFNETFGDYSEKAHELLNTKLEQWAEEAVARGGFHNTTALLIQYENYRDWIVNHNVAYSELFLDTAGVASFDVWDLLPFTRGYVHILDKDPYLHHFAYDPQYFLNELDLLGQAAATQLARNISNSGAMQTYFAGETIPGDNLAYDADLSAWTEYIPYHFRPNYHGVGTCSMMPKEMGGVVDNAARVYGVQGLRVIDGSIPPTQMSSHVMTVFYAMALKISDAILEDYASMQ | 30.8
